Experimental data from paper PMC2518714.

Target: T1, CD9 (wild type) (human (endogenous in PC3)), P21926
T1 chain: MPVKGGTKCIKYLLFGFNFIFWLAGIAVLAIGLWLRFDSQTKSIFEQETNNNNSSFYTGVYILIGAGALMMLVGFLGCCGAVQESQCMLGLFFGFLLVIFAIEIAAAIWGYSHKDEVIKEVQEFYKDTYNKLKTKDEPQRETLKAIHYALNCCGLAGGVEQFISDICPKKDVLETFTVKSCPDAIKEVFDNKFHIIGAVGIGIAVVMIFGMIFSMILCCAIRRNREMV
Assay: single-molecule codiffusion
Conditions: remark: other sources report otherwise

- percent of Brownian and mixed trajectories with codiffusing molecules: 15%
- percent of possible pairs dynamically colocalized: 5%
B1: CD9 (wild type), P21926 1-228 (natural protein)
chain: T1 chain
modifications: here or on the partner: palmitoylated (sites not given); palmitoylated (sites not given)
